These results are taken from a protein production outcome set (Wang et al. 2014).

The data set in a line: label from the status in PepcDB records.

With “MLGLHGRKPAQVIVEPVAKLMIKLKVTPNQLTLVSAGLTVGVALLLIPTGHLIWAAVLTGLFAAFDMIDGTVARMQGGGTKFGATLDATCDRITDGALFGAITWWLVYSYDAPQALVAASLVCLVASQVISYVKARGEASGFTMDGGLVERPERLIVSLVGLGLTGMGVPYAIDVALWALAAGSIYTVVQRLVMAGKSPLAKEFTKAPAGAKADYSNTK”, the protein production entry is “failed”.

“MLGLVLLYVGIVLISNGICGLTKVDPKSTAVMNFFVGGLSIICNIVVITYSALHPTAPVEGAEDIAQVSHHLTSFYGPATGLLFGFTYLYAAINHTFGLDWRPYSWYSLFVAINTIPAAILSHYSDMLDDHKVLGITEGDWWAIIWLAWGVLWLTAFIENILKIPLGKFTPWLAIIEGILTAWIPAWLLFIQHWV”: the protein production entry is recorded as “failed”.

For “MLGSIFTASAVVMILLGLGMLTVFTQRLVDQKIDIASSEIDRARVIVEEQITASGASTSVQARVNSARAALSSLGTSGGTETNAAYDPVVLVNNDDLVVSPEGYQIPERLRYFVSENQVSYQFSSIDQGDGSSYQALIIGTPTESDIPNLQVYLVFSMESDESSLALMRGLLSAALLIVVVLLVGIAWLATQQVTAPVRSASRIAERFAQGKLRERMVVEGEDEMARLAVSFNAMAESLSAQITKLEEYGNLQRQFTSDVSHELRTPLTTVRMAADLIADSEDELSPGARRASQLMNRELDRFESLLSDLLEISRHDAGVAELSTALHDVRIPVRSALEQVQHLATELDVELLVNLPEEAINIQGDSRRIERIIRNLLANAIDHSKGLPVELKVADNVDAVAIVVIDHGVGLKPGQDELVFNRFWRADPSRVRHSGGTGLGLAISREDAMLHGGNLDAAGTIGVGSIFRLVLPKEPHGNYREAPIPLIAPETPWEGEQQ”, the protein production entry is “failed”.

Consider “MLHDWGVIAAALAYIGFLFVVASWGDRLSQGQRERAGGLIYPLSLAIYCTSWTFFGSVGFASRSSFDFLAIYVGPVLVVLVATPLLRRVIRLAKSQNITSIADFIAARYGKSQKVAATVAIIAIIGSVPYIALQLKAVSSSLQTILGDDHNIADIPIVGDIALIVAMAMALFTVLFGTRQASATEHQHGLMLAVATESIVKLVAFLAAGIFVTFWMFSPSALIERAMQMPEAVRALDSTSPANFLTMTALSFCAFMMLPRQFHVSVVENSNEAEVGRARWLFPLYLVAINLFVIPIALAGLVKFPFGKVDSDMYVLALPIDADAPMLSVAVFIGGLSAATAMVIVECVALAVMVSNDLVMPLVLKRHGAPRPDEQRNFGRFLLTVRRVAIFAILILAYLYYRALGNTQLAAIGLLSFAAIAQFAPSFFGGLIWRRATARGAIGGLLVGFAVWAYTLFIPSFMENSTTGLLLLQHGPWGIEALRPQALFGSDLPPLLHGVLWSLSLNLIAYILLSLLRQPSSIERLQAEVFVPDALTPMTPAFRRWRTTVTVQDIVGAVSQYLGPERARDSFRSFAAGRRITLDPAAPADFELLKHAEHLIASSIGAASSRLVLSLLLRKRTVSAEAALKLLDDSHAALHFNREILQTALNHVRQGIAVFNPELQLICSNRQFGEILGLPPHIIQIGIPLIEILEFLASNSIAPIDAEAHTQMRMAAYTTEGEPFIERFPDRHLVVEVRANRMPDGGLVITFSDVTPSFEAAEALERANATLERRVRERTEELTRLNSQLALAKSTAEEANISKTRFLAAASHDILQPLNAARLYATSLVERQNGGEDSRLVENIDESLQAIEEIIGALLDISRLDAGAMTPSLSNFVIGDLMRSLEIEFSPTARAKGLELTFVPCSLPVQSDRLMLRRLMQNLISNAIKYTPQGRVLVGCRRQGQSLRIGIYDTGVGVPILKRGEIFKEFHRLEQGARIARGLGLGLSIVERLARVLNHGIALDSNRGGGSCFSVTVPVAEAVNHTAAVTSATPLSRASMSGILVVCIENDPAILDGMKTLLTTWDAKVIAVADPEAAIRAIESSEQRVTGLLVDYHLDRGNGIAAIREIRARFGQSIPAILITADRSPGVRASARQEEIAVLNKPVKAASLRALLSQWHAQQSVVAAE”, for which the protein production result is given as “failed”. With “MLHIDDAMIEDAVTPQAAQEVLHAAFLDFGRGSAAMQRRVRTEAGGVKLSTLGAVIPGQGVAGAKVYTTIKGQFQFVILLFSAADGRPLATCDAGTLTRKRTAACTVLAAGALARPRSSVLGLFGAGTQGVEHAAQLSARFALEAILVHDPHASPEVVERIGRRCGVPARMAAPADIAAQADIVVTATRSATPLFAGQALRAGAFVGAIGSSLPHTRELDDEALRRARAVVVEWREQTLSEAGDLVLAAPDTGLDAKVVELADVLAGRATARQADEDIVIYKSVGVGLEDVALAGYAYRRLAAQRGWPAP”, the protein production result is listed as “failed”. With “MLHKRASEANDKNDNTIIGSDLASSKKRRIDFTESSSDKSSSILASGSSRGFHGDSVVQQIDMAFGNSNRQEIDEDLHSRQLAVYGRETMRRLFASNVLISGMHGLGAEIAKNLILAGVKSVTLHDERVVELWDLSSNFVFSEDDVGKNRADASVQKLQDLNNAVVVSSLTKSLNKEDLSGFQVVVFSDISMERAIEFDDYCHSHQPPIAFVKADVRGLFGSVFCDFGPEFAVLDVDGEEPHTGIIASISNENQAFISCVDDERLEFEDGDLVVFSEVEGMTELNDGKPRKIKSTRPYSFTLDEDTTNYGTYVKGGIVTQVKQPKLLNFKPLREALKDPGDFLFSDFSKFDRPPLLHLAFQALDHFKAEAGRFPVAGSEEDAQKLISIATAINTGQGDLKVENVDQKLLRHFSFGAKAVLNPMAAMFGGIVGQEVVKACSGKFHPLFQFFYFDSVESLPSEPVDSSDFAPRNSRYDAQISVFGAKFQKKLEDAKVFTVGSGALGCEFLKNLALMGVSCGSQGKLTVTDDDIIEKSNLSRQFLFRDWNIGQAKSTVAASAAAVINPRFNIEALQNRVGAETENVFDDAFWENLTVVVNALDNVNARLYVDSRCLYFQKPLLESGTLGTKCNTQSVIPHLTENYGASRDPPEKQAPMCTVHSFPHNIDHCLTWARSEFEGLLEKTPAEVNAYLSSPVEYTNSMMSAGDAQARDTLERIVECLEKEKCETFQDCLTWARLRFEDYFVNRVKQLIYTFPEDAATSTGAPFWSAPKRFPRPLQYSSSDPSLLNFITATAILRAETFGIPIPEWTKNPKEAAEAVDRVIVPDFEPRQDAKIVTDEKATTLTTASVDDAAVIDDLIAKIDQCRHNLSPDFRMKPIQFEKDDDTNYHMDVIAGLANMRARNYSIPEVDKLKAKFIAGRIIPAIATSTAMATGLVCLELYKVLDGGHKVEAYRNTFANLALPLFSMAEPLPPKVVKHRDMAWTVWDRWVLKGNPTLREVLQWLEDKGLSAYSISCGSCLLFNSMFTRHKERMDKKVVDLARDVAKVELPPYRNHLDVVVACEDEDDNDVDIPLVSIYFR”, the protein production entry was “failed”.

On to “MLHLKVQFLDDSQKIFVVDQKSSGKALFNLSCSHLNLAEKEYFGLEFCSHSGNNVWLELLKPITKQVKNPKEIVFKFMVK”, for which the protein production result is given as “failed”. As for “MLHWISLLCAGCLEMAGVALMNQYAKEKSVKWVLLIIVGFAASFSLLSYAMETTPMGTAYAVWTGIGTAGGALIGILFYKEQKDAKRIFFIALILCSAVGLKILS”, the protein production result is given as “failed”. Regarding “MLIFLISSAIVLLADLLITYQIYREIKVRREVSGNQGGFASVIIPVRGLDVNAEENLKSLLSQDYSAYEVIYVVDDENDPIVPILRKYNVKVVVSNKNCDICSGKINAQLEGLKHARGDIIVFADSDTWFPKYWLKELVSPLSNYVATTVFSWAKPVRLTIGNIIRAGFWTLGFESQAVGGTFLWGGSMAFKREFFDERVIQELKTQWCDDCTLTRIAKERGKLGFVFNAMPLNFYDETQLITWSKRQLITVWRYSRRGVNGFIIVAIFMLAFLFLIPFNVFAITPFIFWVFKNILRSYKIGLSNSIIPSLASILAIFYSLFLIALTLREKNIIWRGKIYKV”, the protein production result is “failed”.

As for “MLIKLTGGTVYDPANGIDGQVRNLFIRDGRIVHSLNGATPDQEYDLRGKVVMAGAIDMHTHIGGGKVT”, the protein production entry is on record as “failed”. As for “MLIKQTDYFRIYRVINSLLISQNADPASASMYFSTFGAFILQQHYKVKAVPKGGLAAYNLGGTVLLFADHREDGYVTGAGENFHCWVEADGWAIDFMAPAFSEGTDALAVPAKMFQRPLSAMAASINDLGQSGDFFYRSEPEATARRFADWHKQAMIGDMASVAANWFRKSPKQMAASLSVTDRDGKARTVPLTGEMLTGAW”, the protein production entry is “not failed”. “MLINLGQRLENLRTLVGFLKAARAESLDRVIAIADSLNKTEIAAQSRRWMLSHPAVAQLAAENYAPARPALEALNQLPTGTLGQAYASLLLGQNLSPDDLQPAKPATNADEYIVERLRVTHDIAHVITGFGTDPASELGLQAFNLRQNRTPLAVLLIAGGLLKTIKEGRDPAPILRQVARGIELADKAELLVAQRWEDHWDWPLEQWRQVLNLPV”: the protein production result was “failed”.
